The source of these data is US20230272119A1 (MARENGO THERAPEUTICS, published 2023).

The target in assay [1] is T1, α-CCR2 heavy-LgBiT (SEQ ID NO: 155).
T1 construct: VH-CH1-linker-LgBiT; germline VH1-2*01
Nature of the assay: NanoBiT, HC-LgBiT:LC-SmBiT:competing LC 1:1:1; competing kappa LC m42 (SEQ ID NO: 133).

Assay [2] shares this target. Nature of the assay: NanoBiT, HC-LgBiT:LC-SmBiT:competing LC 1:1:1; competing kappa LC m33 (SEQ ID NO: 124).
Assay [3] shares this target. Nature of the assay: NanoBiT, HC-LgBiT:LC-SmBiT:competing LC 1:1:1; competing kappa LC m36 (SEQ ID NO: 127).
Assay [4] shares this target. Briefly: NanoBiT, HC-LgBiT:LC-SmBiT:competing LC 1:1:1; competing kappa LC m24 (SEQ ID NO: 115).
Assay [5] addresses T2, α-IL12β heavy-hCHIg_Hole_Cys (SEQ ID NO: 170) (Homo sapiens (Human), UniProt P0DOX5 1-449 = IgG part).
T2 construct: full heavy chain, human Fc hole; Fab analysed after papain cleavage in the MS assay; germline VH3-33*01; also called HCP1 of multispecific molecules 3 and 9
Nature of the assay: intact MS of papain-cleaved multispecific molecule 3; Fab of this pairing observed (observed mass, Da).

For assay [6], the target named is T3, α-CTLA4 heavy-hCHIg_Knob_Cys (SEQ ID NO: 168) (Homo sapiens (Human), UniProt P0DOX5 1-449 = IgG part).
T3 construct: full heavy chain, human Fc knob; Fab analysed after papain cleavage in the MS assay; germline VH3-30*01; also called HCP2 of multispecific molecules 3, 4, 5, 9
Nature of the assay: intact MS of papain-cleaved multispecific molecule 3; Fab 'Kappa heavy chain/lambda light chain' not observed.

For assay [7], the target named is T4, α-CCR2 heavy-LgBiT (SEQ ID NO: 158).
T4 construct: VH-CH1-linker-LgBiT; germline VH3-7*01
Nature of the assay: NanoBiT, HC-LgBiT:LC-SmBiT:competing LC 1:1:1; competing kappa LC m42 (SEQ ID NO: 133).

The target is the same in assay [8]. Nature of the assay: NanoBiT, HC-LgBiT:LC-SmBiT:competing LC 1:1:1; competing kappa LC m9 (SEQ ID NO: 100).
Assay [9] shares this target. Nature of the assay: NanoBiT, HC-LgBiT:LC-SmBiT:competing LC 1:1:1; competing kappa LC m18 (SEQ ID NO: 109).
For assay [10] the target is unchanged. Nature of the assay: NanoBiT, HC-LgBiT:LC-SmBiT:competing LC 1:1:1; competing kappa LC m6 (SEQ ID NO: 97).
For assay [11] the target is unchanged. Briefly: NanoBiT, HC-LgBiT:LC-SmBiT:competing LC 1:1:1; competing kappa LC m12 (SEQ ID NO: 103).
For assay [12] the target is unchanged. Briefly: NanoBiT, HC-LgBiT:LC-SmBiT:competing LC 1:1:1; competing kappa LC m24 (SEQ ID NO: 115).
The target is the same in assay [13]. Nature of the assay: NanoBiT, HC-LgBiT:LC-SmBiT:competing LC 1:1:1; competing kappa LC m15 (SEQ ID NO: 106).
Assay [14] addresses T5, α-HER3 heavy-LgBiT (SEQ ID NO: 143).
T5 construct: VH-CH1-linker-LgBiT; germline VH3-9*01
Briefly: NanoBiT, HC-LgBiT:LC-SmBiT:competing LC 1:1:1; competing kappa LC m42 (SEQ ID NO: 133).

Assay [15] shares this target. Nature of the assay: NanoBiT, HC-LgBiT:LC-SmBiT:competing LC 1:1:1; competing kappa LC m33 (SEQ ID NO: 124).
For assay [16] the target is unchanged. Briefly: NanoBiT, HC-LgBiT:LC-SmBiT:competing LC 1:1:1; competing kappa LC m6 (SEQ ID NO: 97).
Assay [17] has the same target. Briefly: NanoBiT, HC-LgBiT:LC-SmBiT:competing LC 1:1:1; competing kappa LC m12 (SEQ ID NO: 103).
For assay [18] the target is unchanged. Nature of the assay: NanoBiT, HC-LgBiT:LC-SmBiT:competing LC 1:1:1; competing kappa LC m27 (SEQ ID NO: 118).
Assay [19] shares this target. Briefly: NanoBiT, HC-LgBiT:LC-SmBiT:competing LC 1:1:1; competing kappa LC m36 (SEQ ID NO: 127).
Assay [20] has the same target. Nature of the assay: NanoBiT, HC-LgBiT:LC-SmBiT:competing LC 1:1:1; competing kappa LC m24 (SEQ ID NO: 115).
Assay [21] has the same target. Briefly: NanoBiT, HC-LgBiT:LC-SmBiT:competing LC 1:1:1; competing kappa LC m21 (SEQ ID NO: 112).
For assay [22] the target is unchanged. Briefly: NanoBiT, HC-LgBiT:LC-SmBiT:competing LC 1:1:1; competing kappa LC m15 (SEQ ID NO: 106).
The target of assay [23] is T6, α-complement C5 heavy-LgBiT (SEQ ID NO: 152).
T6 construct: VH-CH1-linker-LgBiT; germline VH1-69*01
Nature of the assay: NanoBiT, HC-LgBiT:LC-SmBiT:competing LC 1:1:1; competing kappa LC m42 (SEQ ID NO: 133).

In assay [24] the target is T7, α-IL23 heavy-LgBiT (SEQ ID NO: 140).
T7 construct: VH-CH1-linker-LgBiT; germline VH5-51*01
Nature of the assay: NanoBiT, HC-LgBiT:LC-SmBiT:competing LC 1:1:1; competing kappa LC m33 (SEQ ID NO: 124).

The target is the same in assay [25]. Nature of the assay: NanoBiT, HC-LgBiT:LC-SmBiT:competing LC 1:1:1; competing kappa LC m6 (SEQ ID NO: 97).
Assay [26] has the same target. Briefly: NanoBiT, HC-LgBiT:LC-SmBiT:competing LC 1:1:1; competing kappa LC m27 (SEQ ID NO: 118).
For assay [27] the target is unchanged. Briefly: NanoBiT, HC-LgBiT:LC-SmBiT:competing LC 1:1:1; competing kappa LC m24 (SEQ ID NO: 115).

B1: α-CCR2 light-SmBiT (SEQ ID NO: 156) (other)
light: LPVLTQPPSVSKGLRQTATLTCTGNSNNVGNQGAAWLQQHQGQPPKLLSYRNHNRPSGVSERFSPSRSGDTSSLTITGLQPEDEADYYCLAWDSSLRAFVFGTGTKLTVLGQPKANPTVTLFPPSSEELQANKATLVCLISDFYPGAVTVAWKADGSPVKAGVETTKPSKQSNNKYAASSYLSLTPEQWKSHRSYSCQVTHEGSTVEKTVAPTECSGSSGGGGSGGGGSSGGVTGYRLFEEIL
notes: lambda light chain-linker-SmBiT; germline Vl10-54*01
Regarding B1, the Percent pairing in [1] is 100%; in assay [2], 80%; in assay [3], 77%; in assay [4] it was 90%.

B2: α-IL12β light (SEQ ID NO: 163) (other)
light: QSVLTQPPSVSGAPGQRVTISCSGSRSNIGSNTVKWYQQLPGTAPKLLIYYNDQRPSGVPDRFSGSKSGTSASLAITGLQAEDEADYYCQSYDRYTHPALLFGTGTKVTVLGQPKANPTVTLFPPSSEELQANKATLVCLISDFYPGAVTVAWKADGSPVKAGVETTKPSKQSNNKYAASSYLSLTPEQWKSHRSYSCQVTHEGSTVEKTVAPTECS
notes: unmodified lambda light chain; germline Vl1-44*01; also called LLCP of multispecific molecule 3
With B2, the results for the binding result in [5] and in assay [6] were “binds” and “no binding”, respectively.

B3: α-CCR2 light-SmBiT (SEQ ID NO: 159) (other)
light: QAGLTQPPSVSKGLRQTATLTCTGNSNNVGNQGAAWLQQHQGHPPKLLFYRNNNRASGISERLSASRSGNTASLTITGLQPEDEADYYCLTWDSSLSVVVFGGGTKLTVLGQPKANPTVTLFPPSSEELQANKATLVCLISDFYPGAVTVAWKADGSPVKAGVETTKPSKQSNNKYAASSYLSLTPEQWKSHRSYSCQVTHEGSTVEKTVAPTECSGSSGGGGSGGGGSSGGVTGYRLFEEIL
notes: as for B1
As for B3, the Percent pairing in assay [7] turned out to be 99%; in assay [8], 99%; in assay [9] it was 95%; in assay [10] it was 89%; in assay [11], 100%; in assay [12] it was 97%. In assay [13], this molecule showed a Percent pairing of 98%.

B4: α-HER3 light-SmBiT (SEQ ID NO: 144) (other)
light: SYELTQDPAVSVALGQTVRITCQGDSLRSYYASWYQQKPGQAPVLVIYGKNNRPSGIPDRFSGSTSGNSASLTITGAQAEDEADYYCNSRDSPGNQWVFGGGTKVTVLGGQPKANPTVTLFPPSSEELQANKATLVCLISDFYPGAVTVAWKADGSPVKAGVETTKPSKQSNNKYAASSYLSLTPEQWKSHRSYSCQVTHEGSTVEKTVAPTECSGSSGGGGSGGGGSSGGVTGYRLFEEIL
notes: lambda light chain-linker-SmBiT; germline Vl3-19*01
With B4, the Percent pairing amounted to 100% in [14]; 100% in [15]; 100% in assay [16]; 80% in assay [17]; 90% in assay [18]; 100% in assay [19]. In addition, the Percent pairing was 86% in [20], 100% in assay [21] and 93% in [22].

B5: α-complement C5 light-SmBiT (SEQ ID NO: 153) (other)
light: SYELTQPLSVSVALGQTARITCSGDSIPNYYVYWYQQKPGQAPVLVIYDDSNRPSGIPERFSGSNSGNTATLTISRAQAGDEADYYCQSFDSSLNAEVFGGGTKLTVLGQPKANPTVTLFPPSSEELQANKATLVCLISDFYPGAVTVAWKADGSPVKAGVETTKPSKQSNNKYAASSYLSLTPEQWKSHRSYSCQVTHEGSTVEKTVAPTECSGSSGGGGSGGGGSSGGVTGYRLFEEIL
notes: lambda light chain-linker-SmBiT; germline Vl3-9*01
The molecule B5 displayed a Percent pairing in assay [23] of 79%.

B6: α-IL23 light-SmBiT (SEQ ID NO: 141) (other)
light: QSVLTQPPSVSGAPGQRVTISCTGSSSNIGSGYDVHWYQQLPGTAPKLLIYGNSKRPSGVPDRFSGSKSGTSASLAITGLQSEDEADYYCASWTDGLSLVVFGGGTKLTVLGQPKANPTVTLFPPSSEELQANKATLVCLISDFYPGAVTVAWKADGSPVKAGVETTKPSKQSNNKYAASSYLSLTPEQWKSHRSYSCQVTHEGSTVEKTVAPTECSGSSGGGGSGGGGSSGGVTGYRLFEEIL
notes: lambda light chain-linker-SmBiT; germline Vl1-40*01
With B6, the Percent pairing in assay [24] came to 100%; in [25], 96%; in [26] it was 91%; in assay [27], 93%.
